Our source for the self-cleavage values is the RNAGym collection of RNA variant scans (doi:10.7554/elife.90254).

B1: OR4K15 (parent)
chain: GUUAACGGUCAUAGGCCAUGGAAACUAGGAGCACCAUUUCGCUGCCAGUGAAGAAAUGAACAAAGAAAAUCUGGGCCAGGCAGGCAUCAAAAGAAAUAGUCUUGCGCUCAACCAGAAAGUCUGUAAUCAUUUUAAGGGUA

In the data set the parent is B1. The experiment in a line: self-cleavage, relative activity (ratio to wild type); higher = more cleavage; in vitro, sequencing; the parent is a self-cleaving ribozyme.
As to A13C U122G, the self-cleavage is 2.12.
In the case of A22U G44A it was 1.87; in that of G75U U87C, 0.11; in that of A66G U120G, 2.47.
Regarding A66U U122C, the self-cleavage was determined as 1.09.
Turning to U39C A116G, the self-cleavage came to 0.83.
Take A23G U57C: the self-cleavage came out at 1.04.
As for U108C U120A, the self-cleavage came to 0.01.
Then U108C A125G, with 0.
For the variant A78G A117U, the self-cleavage worked out at 0.1.
In the case of G31A A52G, the self-cleavage stood at 2.05.
With A24U, the self-cleavage stood at 1.41.
On to A59G A69U, for which the self-cleavage came out at 1.7.
As for A54G U100C, the self-cleavage amounted to 2.16.
Then A111G U130A, with 0.02; and G74A U87C, with 0.19.
A110G U139A: the self-cleavage stood at 0.05.
Turning to U87C C128U, the self-cleavage was 0.76.
Turning to A110C, the self-cleavage was 0.31.
On to A110U, for which the self-cleavage was 1.34.
Take A92G U131C: the self-cleavage stood at 0.49.
Take A67U G75A: the self-cleavage was found to be 0.06.
For C25U A51G, the self-cleavage is 2.48.
Turning to U19C G50A, the self-cleavage came to 1.38.
On to A23G A117U, for which the self-cleavage came out at 0.55.
Consider A125G U130C, for which the self-cleavage came to 0.53.
On to A33C A63G, for which the self-cleavage came to 1.98.
On to A47U C101U, for which the self-cleavage amounted to 0.22.
A66G A96G: the self-cleavage was 1.87.
In the case of U43A A56C, the self-cleavage was 0.8.
Then A30G A92G, with 1.05.
In the case of A24G U130G it was 0.56.
Regarding A22G U43A, the self-cleavage was 1.31.
Then U43G A67G, with 1.89; and U127C A135U, with 0.65.
Then U130G, with 1.03; and U2G U19A, with 0.72.
As for A22G A62G, the self-cleavage was 1.12.
A11G U103A: the self-cleavage was found to be 0.77.
On to U39A A56G, for which the self-cleavage is 1.59.
Regarding A33U U70A, the self-cleavage was 0.33.
Consider U9C A67G, for which the self-cleavage was 1.85.
As to A4U A140U, the self-cleavage turned out to be 1.5.
As for U2G U9C, the self-cleavage stood at 1.05.
With U2C A86G, the self-cleavage was found to be 0.95.
For the variant A18G A91U, the self-cleavage stood at 1.94.
Turning to A89U U131C, the self-cleavage is 1.47.
For the variant U57G A94G, the self-cleavage was 1.41.
Consider A33G A129U, for which the self-cleavage was 0.39.
On to U43G U103A, for which the self-cleavage was 1.15.
As to G15A U131G, the self-cleavage turned out to be 1.44.
As for C10U G14U, the self-cleavage was found to be 0.49.
As to A55G U139A, the self-cleavage came to 1.49.
With C46U G84A, the self-cleavage was 1.72.
Regarding A56G A117U, the self-cleavage amounted to 1.27.
In the case of A11G A36U it was 1.12.
In the case of A36G A91C it was 1.96; in that of A23G A62C, 0.98.
For the variant A98G U139C, the self-cleavage was found to be 0.5.
Regarding U87A U131C, the self-cleavage is 1.67.
In the case of A89G G119C it was 1.62.
As to U19A A68G, the self-cleavage came out at 1.64.
On to A91G U97A, for which the self-cleavage was 1.05.
In the case of A118U U132C, the self-cleavage was determined as 0.4.
In the case of U57C A116U it was 0.33.
Regarding A24G U108C, the self-cleavage is 0.03.
As for U19A U102A, the self-cleavage amounted to 0.97.
For U2A U3A, the self-cleavage is 1.16.
In the case of A96C U102C it was 2.16; in that of G79A U120A, 0.13; in that of U2C U108A, 0.01.
Regarding U70C U87A, the self-cleavage amounted to 0.61.
Regarding A55U A94G, the self-cleavage came to 1.59.
Turning to A63U A118G, the self-cleavage amounted to 1.71.
On to G15A A129G, for which the self-cleavage was 1.19.
With A27G U97A, the self-cleavage is 1.24.
For U9A A135G, the self-cleavage is 1.41.
Then U26C U57C, with 1.44.
For A51G G53U, the self-cleavage came out at 1.66.
In the case of A30G A118G it was 1.2; in that of A94C A96G, 0.94.
For A13U C121A, the self-cleavage is 1.92.
Take U102A G115A: the self-cleavage came out at 0.06.
Then G14A C40A, with 1.54.
For A64U G123A, the self-cleavage turned out to be 2.31.
With A91G A125G, the self-cleavage worked out at 0.16.
In the case of A62C A116G, the self-cleavage came to 0.78.
For the variant A90G U132C, the self-cleavage turned out to be 1.12.
On to A78U G119A, for which the self-cleavage amounted to 0.39.
As to U49A A62G, the self-cleavage was determined as 0.7.
For the variant A82U A126U, the self-cleavage was 0.19.
With A82G U102A, the self-cleavage worked out at 0.34.
For the variant U2C A89G, the self-cleavage was 0.63.
Consider A22U A89U, for which the self-cleavage is 1.91.
With A86U A110C, the self-cleavage was determined as 0.36.
With A114U, the self-cleavage was determined as 0.06.
On to A114G, for which the self-cleavage turned out to be 0.45.
Consider A60G A92G, for which the self-cleavage was found to be 0.87.
With C61U U133C, the self-cleavage amounted to 1.21.
Consider A62U G74A, for which the self-cleavage came to 0.41.
On to U38C A117G, for which the self-cleavage was determined as 1.18.
Take U57C A82U: the self-cleavage came out at 0.21.
Take U9C U49C: the self-cleavage was 1.67.
As to A18U C85U, the self-cleavage amounted to 1.37.
With A95U U132C, the self-cleavage is 1.4.
Then A13U U97C, with 1.4.
Consider A36G U43A, for which the self-cleavage was 1.27.
For the variant U19G A91G, the self-cleavage worked out at 1.28.
On to A33G A54G, for which the self-cleavage was found to be 1.06.
For U19C C45U, the self-cleavage was determined as 0.47.
A33G U124C: the self-cleavage amounted to 0.63.
As for A60G A62G, the self-cleavage was found to be 1.
Consider U26C A66G, for which the self-cleavage turned out to be 0.9.
Then A64U A129G, with 1.34.
Consider C85A A134G, for which the self-cleavage came out at 1.83.
Then G50A A69G, with 1.85.
In the case of A51G A125G it was 0.97; in that of C16U C85U, 1.15.
For U3G A110U, the self-cleavage is 1.67.
As for A23G U103C, the self-cleavage was determined as 0.77.
In the case of A22G C88U, the self-cleavage came out at 2.1.
For the variant U130C G138A, the self-cleavage is 1.41.
Then G15A A51U, with 1.78; and A59U U127G, with 1.12; and A116C A129G, with 0.05.
In the case of U37A A66G, the self-cleavage came out at 1.72.
For A23C U132C, the self-cleavage is 1.51.
In the case of A68U G119A, the self-cleavage stood at 1.58.
Regarding A56G A96G, the self-cleavage was found to be 1.68.
Consider G75A A114U, for which the self-cleavage amounted to 0.02.
As for U19C A134G, the self-cleavage is 1.62.
Regarding U37C U122C, the self-cleavage was 1.25.
In the case of A33G A116G it was 0.24.
With A54U A95G, the self-cleavage was determined as 2.47.
Regarding U43C A118G, the self-cleavage came to 1.02.
C16U A23U: the self-cleavage came out at 1.24.
With A18U A118G, the self-cleavage is 0.6.
Take A33U C85A: the self-cleavage stood at 2.05.
As for A30G U37A, the self-cleavage was found to be 1.7.
In the case of A95G U103G, the self-cleavage stood at 0.06.
With A23G A110C, the self-cleavage is 0.09.
Consider A96U C113U, for which the self-cleavage worked out at 0.04.
Regarding A96G G138U, the self-cleavage was 1.33.
In the case of A22U U127C, the self-cleavage was 1.13.
Consider C85A A98U, for which the self-cleavage was 1.17.
With A54U A56U, the self-cleavage came to 1.8.
Then A78U A111U, with 0.04.
As for A36U A62C, the self-cleavage turned out to be 0.87.
In the case of U120C U122C it was 0.32; in that of A52G A135U, 1.37.
A33C C46U: the self-cleavage was 1.3.
For the variant A52G A129G, the self-cleavage stood at 1.3.
For A24C A78G, the self-cleavage came to 0.32.
U19C U131C: the self-cleavage was determined as 1.14.
Take U97C A126U: the self-cleavage amounted to 0.44.
As to C85A A135G, the self-cleavage was determined as 1.54.
In the case of A24G A134U it was 0.93; in that of A59G U87C, 1.19.
With U87C A110C, the self-cleavage came to 0.12.
In the case of U9C U72C it was 0.2.
On to U9C A69G, for which the self-cleavage was found to be 1.38.
As to A110G C121G, the self-cleavage came out at 0.2.
Consider A117U U132C, for which the self-cleavage was 0.88.
Consider A91U U97C, for which the self-cleavage was determined as 2.02.
In the case of A78U A116G, the self-cleavage stood at 0.14.
In the case of A78U U102A, the self-cleavage was determined as 0.16.
For the variant A91G G99A, the self-cleavage came to 0.21.
